From publication PMC7515702 come the findings set out here.

As a reminder, the Kd is the concentration at which binding is half-saturated. Higher therefore signals lower affinity.

Among the targets are PARP1 H862A H862A (UniProt P09874); PARP1 WT (UniProt P09874); PARP1 E988K E988K (UniProt P09874); PARP1 H862D H862D (UniProt P09874).
Common to all, as to experiment: fluorescence polarization
What all share (conditions): no NAD+, 250 mM NaCl; Kd: 5 nM probe, 12 mM HEPES pH 8.0, 250 mM NaCl, 4% glycerol, 5.7 mM beta-mercaptoethanol, 0.05 mg/ml BSA, 30 min RT. Competition: 40 nM PARP1, 20 nM probe …
For orientation: Fluorescence polarisation rises when a labelled molecule tumbles more slowly, as on binding a larger partner.

Chain of PARP1 E988K E988K (P09874 whole entry E988K): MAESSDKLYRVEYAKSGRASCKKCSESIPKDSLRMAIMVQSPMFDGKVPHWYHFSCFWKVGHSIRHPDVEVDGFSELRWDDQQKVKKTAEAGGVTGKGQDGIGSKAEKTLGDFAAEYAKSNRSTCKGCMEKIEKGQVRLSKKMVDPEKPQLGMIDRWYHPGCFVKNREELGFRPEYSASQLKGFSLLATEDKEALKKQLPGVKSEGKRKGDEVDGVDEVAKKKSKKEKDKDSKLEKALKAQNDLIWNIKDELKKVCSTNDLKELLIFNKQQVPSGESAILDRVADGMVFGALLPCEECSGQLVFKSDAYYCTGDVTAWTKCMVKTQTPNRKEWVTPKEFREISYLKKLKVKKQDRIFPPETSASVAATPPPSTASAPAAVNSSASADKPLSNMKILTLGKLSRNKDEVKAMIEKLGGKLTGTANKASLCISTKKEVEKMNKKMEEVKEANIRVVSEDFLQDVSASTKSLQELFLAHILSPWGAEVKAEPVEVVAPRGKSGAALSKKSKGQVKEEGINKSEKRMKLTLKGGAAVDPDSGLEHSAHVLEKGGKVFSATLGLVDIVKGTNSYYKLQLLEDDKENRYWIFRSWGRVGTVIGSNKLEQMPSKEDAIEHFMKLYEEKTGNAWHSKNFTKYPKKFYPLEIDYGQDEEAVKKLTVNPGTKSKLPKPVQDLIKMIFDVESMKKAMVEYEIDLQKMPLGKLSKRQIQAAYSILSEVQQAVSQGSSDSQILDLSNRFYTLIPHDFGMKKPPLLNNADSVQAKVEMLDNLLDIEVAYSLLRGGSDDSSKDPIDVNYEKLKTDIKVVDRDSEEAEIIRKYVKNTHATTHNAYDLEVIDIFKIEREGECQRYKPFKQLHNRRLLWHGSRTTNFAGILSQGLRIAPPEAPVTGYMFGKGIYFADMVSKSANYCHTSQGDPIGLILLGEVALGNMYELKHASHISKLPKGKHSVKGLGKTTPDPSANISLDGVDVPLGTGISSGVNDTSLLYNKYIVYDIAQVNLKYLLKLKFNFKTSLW
Chain of PARP1 H862A H862A (P09874 whole entry H862A): as the sequence (P09874 whole entry E988K) above, with H862A, K988E counted along it
Chain of PARP1 WT (P09874 whole entry): as the sequence (P09874 whole entry E988K) above, with K988E counted along it
Chain of PARP1 H862D H862D (P09874 whole entry H862D): as the sequence (P09874 whole entry E988K) above, with H862D, K988E counted along it

For the sequence “GCTGAGCTTCTGGTGAAGCTCAGCTCGCGGCAGCTGGTGCTGCCGCGA [nicked dumbbell DNA (SSB probe)]”, the dissociation constant (Kd) with PARP1 H862A H862A amounted to 0.176 µM; with PARP1 WT, 0.122 µM; with PARP1 E988K E988K it was 0.0074 µM; with PARP1 H862D H862D it was 0.0112 µM.
